Values quoted from earlier work in patent US12246031B2, “Compositions and methods for tumor immunotherapy” (CHECKMATE PHARMACEUTICALS, INC., priority 2018, dated 2025).
pKd: −log10 of the molar value.

Biological target: PD-L1 (Homo sapiens, UniProt Q9NZQ7)
Conditions: anti-PD-L1 antibody in clinical development

PD-L1, sequence (Q9NZQ7 19-290): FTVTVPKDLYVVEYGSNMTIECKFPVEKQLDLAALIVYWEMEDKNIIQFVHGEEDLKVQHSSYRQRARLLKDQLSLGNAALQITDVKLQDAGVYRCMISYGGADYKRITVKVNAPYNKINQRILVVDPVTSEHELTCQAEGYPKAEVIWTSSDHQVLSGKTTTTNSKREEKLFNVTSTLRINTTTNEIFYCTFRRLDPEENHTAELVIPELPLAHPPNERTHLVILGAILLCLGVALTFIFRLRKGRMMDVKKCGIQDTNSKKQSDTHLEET

Question: With “MPDL3280A: anti-PD-L1 antibody under development in human clinical trials (Genetech/Roche)” as the substance, how does the pKd read?
Answer: 9.40
